From IntAct's records for PubMed 19909339

B1: Olfactory receptor 2AG1 (Homo sapiens), Q9H205 (parent)
chain: MELWNFTLGSGFILVGILNDSGSPELLCATITILYLLALISNGLLLLAITMEARLHMPMYLLLGQLSLMDLLFTSVVTPKALADFLRRENTISFGGCALQMFLALTMGGAEDLLLAFMAYDRYVAICHPLTYMTLMSSRACWLMVATSWILASLSALIYTVYTMHYPFCRAQEIRHLLCEIPHLLKVACADTSRYELMVYVMGVTFLIPSLAAILASYTQILLTVLHMPSNEGRKKALVTCSSHLTVVGMFYGAATFMYVLPSSFHSTRQDNIISVFYTIVTPALNPLIYSLRNKEVMRALRRVLGKYMLPAHSTL

Variants of: B1
Settings: with mpdz_human MPDZ

effect of a mutation on the interaction | Variant
disrupting interaction | L316W
disrupting interaction | S314W
